Results on 1 molecule are retold here after paper PMC2600746.

In the series the target is GST-FoxK[414-654] (Drosophila melanogaster, UniProt A0JL24 414-654). The series can be described thus: competition EMSA.

B1: GAS (dsDNA)
DNA 1: GCGTCTTTTCCGGGAAATACAT
DNA 2: ATGTATTTCCCGGAAAAGACGC
Consider B1, for which the binding result is “no binding”.
